Experimental data from patent US20210190798A1, “METHODS OF QUANTIFYING LIF AND USES THEREOF” (MEDIMMUNE LIMITED, priority 2018, published 2021).

Biological target: LIF (Homo sapiens, UniProt P15018)
Assay: Competitive binding assays against LIF (capture antibody screening)
Method: The capture antibody A4 (set forth in SEQ ID NOs: 41 and 42) was determined by screening potential antibodies using competitive binding assays against LIF.

Sequence of LIF (P15018 23-202): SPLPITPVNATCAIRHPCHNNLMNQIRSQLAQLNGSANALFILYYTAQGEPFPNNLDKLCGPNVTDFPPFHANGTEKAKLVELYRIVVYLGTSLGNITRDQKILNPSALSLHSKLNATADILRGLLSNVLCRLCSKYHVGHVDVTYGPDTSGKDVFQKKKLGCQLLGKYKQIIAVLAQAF

B1: A4: rabbit monoclonal anti-LIF capture antibody, variable regions SEQ ID NOs: 41 and 42 (antibody, V domains shown)
VH: EQLEESVGDLVKPGASLTLTCTASGFSFSGLYYMCWVRQAPGKGLEWIACIWTGSTDSTYYATWAKGRFTISKTSSTTVTLQMTSLTVADTATYFCARGGGVPGDGYALWGPGTLVTVSS
VL: GTELVMTQTPASVSEPVGGTVTINCQASEDISSNLVWYQQKSGQPPKLLIYDASMLASGVPSRFKGSGSGTQFTLTISDLECADGATYYCQSYYVASSSYFVNGFGGGTEVV
binding to LIF: high binding
interference with binding by therapeutic antibody h5D8 or M017C3: did not interfere
